According to patent US12460006B2, “Antibodies against integrin alpha 11 beta 1” (Momenta Pharmaceuticals, Inc., priority 2019, dated 2025):
Entries after “also recorded” stand apart in the source; their conditions may differ.

T1: I domain of α11β1 (Homo sapiens, UniProt Q9UKX5)
T1 construct: An in-house generated I domain of α11β1 was used; made in house
T1 sequence (Q9UKX5 164-345 limits assumed): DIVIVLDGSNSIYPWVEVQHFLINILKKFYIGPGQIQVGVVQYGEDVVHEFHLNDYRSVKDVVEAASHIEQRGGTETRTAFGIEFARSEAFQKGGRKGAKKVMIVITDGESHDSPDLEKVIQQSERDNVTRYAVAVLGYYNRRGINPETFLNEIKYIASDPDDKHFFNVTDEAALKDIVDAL


Key:
[1] = test system: myofibroblasts (MF); experiment: FACS antibody binding to myofibroblasts; set-up: species or system human; conditions: binding Yes/No
Procedure: (§1) Human Pulmonary Fibroblasts (ScienCell) were cultured in complete Fibroblast Growth Medium (ScienCell) until 80% confluent in T-150 flasks. Cells were washed and harvested using Accutase. Cells were seeded into T-150 flasks at 7,500 cells/cm^2 in complete FGF and cultured for 72 hours. Cells were then washed and starved in serum reduced medium for 24 hours. After starvation, cells were treated with TGFβ-1 (R&D Systems) for 72 hours. Cells were harvested using Accutase and seeded in 96-well conical bottom plates. Cells were blocked with Heat Inactived Fetal Bovine Serum (Gibco) for 30 minutes at 4° C. Cells were then incubated with anti-α11 antibodies at the doses described in each figure for 30 minutes at 4° C. A human anti-α11 antibody (Creative BioLabs) was included as a positive control as well as the appropriate IgG isotype negative controls. Cells were washed twice and incubated with PE conjugated secondary antibodies specific to the IgG class of the anti-α11 antibodies being tested for 30 minutes at 4° C. Cells were washed twice and fixed in 1% PFA for 30 minutes. Cells were acquired on a FACS Verse […]. Data were analyzed by gating on single cells and determining the geometric Mean Fluorescence Intensity (gMFI) in the PE channel for each sample.
(§2) Binding to a physiologically relevant primary human cell type was also tested. Human pulmonary fibroblasts (HPF) and TGFβ treatment were used to induce a fibroblast-to-myofibroblast transition (FMT), giving rise to myofibroblasts (MF). […] Additionally, HPFs express α11 and α2β1, other collagen binding receptors, which means that HPFs can be to test cross-reactivity of antibodies of interest.

[2] = molecular target: human α11β1 (Homo sapiens, UniProt Q9UKX5); experiment: ELISA binding to recombinant human α11β1; conditions: binding Yes/No
human α11β1, sequence (Q9UKX5 23-1141 limits assumed): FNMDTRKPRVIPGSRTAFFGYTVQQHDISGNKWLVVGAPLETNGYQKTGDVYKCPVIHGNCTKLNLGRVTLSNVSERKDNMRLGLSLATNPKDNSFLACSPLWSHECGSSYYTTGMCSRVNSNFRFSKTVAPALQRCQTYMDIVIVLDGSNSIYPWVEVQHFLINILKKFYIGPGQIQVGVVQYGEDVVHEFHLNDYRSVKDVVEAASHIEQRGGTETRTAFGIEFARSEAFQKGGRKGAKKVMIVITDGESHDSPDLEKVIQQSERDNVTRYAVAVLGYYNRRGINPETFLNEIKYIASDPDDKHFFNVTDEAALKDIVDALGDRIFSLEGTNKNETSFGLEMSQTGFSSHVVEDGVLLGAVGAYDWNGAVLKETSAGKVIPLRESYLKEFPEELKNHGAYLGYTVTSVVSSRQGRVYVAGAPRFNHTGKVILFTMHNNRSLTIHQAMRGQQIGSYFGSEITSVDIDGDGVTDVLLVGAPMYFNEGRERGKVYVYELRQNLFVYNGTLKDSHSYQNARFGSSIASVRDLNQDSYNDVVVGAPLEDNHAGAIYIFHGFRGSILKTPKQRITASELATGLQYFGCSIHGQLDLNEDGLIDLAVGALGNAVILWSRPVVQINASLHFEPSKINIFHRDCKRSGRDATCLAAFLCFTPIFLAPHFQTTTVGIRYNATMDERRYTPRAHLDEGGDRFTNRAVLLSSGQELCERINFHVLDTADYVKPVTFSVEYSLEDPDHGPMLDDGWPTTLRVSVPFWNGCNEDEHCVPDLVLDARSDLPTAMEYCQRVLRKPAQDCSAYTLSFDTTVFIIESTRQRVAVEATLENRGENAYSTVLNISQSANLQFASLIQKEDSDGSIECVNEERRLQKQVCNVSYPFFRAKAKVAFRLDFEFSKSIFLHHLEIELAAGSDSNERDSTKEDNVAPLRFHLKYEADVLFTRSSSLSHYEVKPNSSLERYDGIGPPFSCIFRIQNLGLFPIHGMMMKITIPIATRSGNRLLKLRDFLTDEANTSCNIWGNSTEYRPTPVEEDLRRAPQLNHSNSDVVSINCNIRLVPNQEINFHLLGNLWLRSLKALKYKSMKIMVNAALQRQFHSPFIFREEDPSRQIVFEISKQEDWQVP
human α11β1, sequence (P05556 21-728 partner limits assumed): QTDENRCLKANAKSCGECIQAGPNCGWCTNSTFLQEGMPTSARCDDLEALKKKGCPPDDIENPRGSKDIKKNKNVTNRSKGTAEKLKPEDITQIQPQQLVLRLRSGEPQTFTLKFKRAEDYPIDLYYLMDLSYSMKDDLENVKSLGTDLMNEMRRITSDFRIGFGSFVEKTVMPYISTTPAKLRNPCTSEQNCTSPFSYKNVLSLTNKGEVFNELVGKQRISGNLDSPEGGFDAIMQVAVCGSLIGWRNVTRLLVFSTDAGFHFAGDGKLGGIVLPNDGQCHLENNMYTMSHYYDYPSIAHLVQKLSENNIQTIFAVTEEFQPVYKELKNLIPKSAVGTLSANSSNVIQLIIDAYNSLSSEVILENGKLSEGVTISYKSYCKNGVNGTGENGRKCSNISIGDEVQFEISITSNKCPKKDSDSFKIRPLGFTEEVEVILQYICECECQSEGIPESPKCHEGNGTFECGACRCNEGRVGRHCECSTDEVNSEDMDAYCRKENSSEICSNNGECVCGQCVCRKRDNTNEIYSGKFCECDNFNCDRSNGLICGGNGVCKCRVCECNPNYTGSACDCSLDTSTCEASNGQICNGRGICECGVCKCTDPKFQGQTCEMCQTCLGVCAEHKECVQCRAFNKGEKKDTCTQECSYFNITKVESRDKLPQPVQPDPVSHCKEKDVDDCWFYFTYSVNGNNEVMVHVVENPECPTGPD
Procedure: (§3) 0.25 μg/mL of target antigen (recombinant human or mouse α11β1) was plated in a 96-well plate over night at 4° C. Plates were washed (PBS with 0.1% Tween-20), blocked (PBS with 2% BSA and 0.05% Tween-20) for 1 hour at room temperature and incubated with a range of antibody concentrations for 1 hour at room temperature. Subsequently, plates were washed and incubated with biotinylated anti-rabbit/mouse/human IgG in a 1:1000 dilution buffer and incubated for 1 hour at room temperature. After washing the plates, Streptavidin HRP was added at 1:200 in dilution buffer and incubated for 1 hour at room temperature. Ultra TMB ELISA substrate solution was added and the plates incubated for 5 minutes on a plate shaker. The reaction was stopped by adding stop solution to each well and plates were read at 450 nm.

[3] = test system: Human Pulmonary Fibroblasts; experiment: Fibroblast-to-Myofibroblasts Transition (FMT), αSMA expression; type: cell-based; conditions: for inhibition of αSMA expression / FMT: TGFβ-induced FMT; for Inhibition of FMT: Yes/No
Procedure: Human Pulmonary Fibroblasts (ScienCell) were cultured in complete Fibroblast Growth Medium (ScienCell) until 80% confluent. Cells were washed and harvested using Accutase. Cells were seeded onto tissue culture-treated 96 well plates at 20,000 cells/well in complete Fibroblast Growth Medium. After 24 hours, cells were washed and starved in serum reduced medium for an additional 24 hours. After starvation, cells were treated with TGFβ-1 (R&D Systems) with or without anti-α11 antibodies. A polyclonal rabbit anti-human α11 antibody was used as a positive control. Appropriate IgG isotype controls were also included. After 48 hours, cells were harvested, fixed, permeabilized and stained with AlexaFluor488 Labeled Anti-αSMA (α-smooth muscle actin) (Invitrogen). Cells were acquired on a FACS Verse (Benton Dickson) to determine expression levels of αSMA. Data were analyzed by gating on single cells and determining the geometric Mean Fluorescence Intensity (gMFI) in the FITC channel for each sample. gMFI for each sample was normalized to the untreated control and presented as % inhibition.
In addition to the binding abilities described above, it is important for an anti-α11β1 antibody to inhibit the fibroblast-to-myofibroblast transition (FMT). It is now appreciated that myofibroblasts are a heterogeneous cell population, existing in different activation states, with the main function of producing and contracting collagen extracellular matrix (ECM). FMT is a multi-step event that is controlled by a changing mechanical environment in tissues undergoing repair. TGFβ is one of the potent factors that potentiates this process and alpha smooth muscle actin (αSMA) is one of the main markers that becomes overexpressed when fibroblasts are undergoing the transition to becoming myofibroblasts. The presence of αSMA enhances fibroblast contraction and guides myofibroblast activation through an intracellular feedback loop. Because αSMA is the main molecular marker of myofibroblasts, the ability of the novel anti-α11β1 mAbs to inhibit αSMA expression in TGFβ-induced FMT was tested.

[4] = molecular target: T1, I domain of α11β1; experiment: ELISA binding to in-house generated I domain of α11β1; conditions: for binding to I domain of α11β1 (high, medium, low): ELISA; for I Domain binding: Yes/No
Procedure: as §3
22 Data was also collected to determine whether antibodies of interest bind to the I domain of α11β1. An in-house generated I domain of α11β1 was used. […] Mouse antibodies 10-F23, 10-L15, 7-O8, 6-A12, 9-G05 and 9-E16 and rabbit antibodies 7-H12 and 2-D3 were also tested for binding against the in-house generated α11031 domain. FIGS. 3A and 3B show graphs illustrating binding data from exemplary mAbs.

[5] = test system: human pulmonary fibroblasts (HPFs); experiment: FACS antibody binding to human pulmonary fibroblasts; conditions: binding Yes/No
Procedure: as §1, §2

[6] = test system: CHO-K1 cells expressing human α11; experiment: Cell adhesion inhibition (xCelligence), type I collagen; type: cell-based; conditions: for inhibition of cell adhesion to type I collagen: CHO-K1 hu α11 cells; for Inhibition of CHO-K1 adhesion to collagen: Yes/No
Procedure: 0.6×10^6 cells/mL were incubated with each antibody at a range of concentrations for 20 minutes at 37° C. E-Plate VIEW 96 PET plate coated with 100 ng/mL type I collagen or PBS overnight at room temperature was blocked in 3% BSA for 1 house at room temperature. After washing the plate with PBS, cell and antibody mixture was added to the wells and the plate was places into an xCelligence machine. Cell adhesion was recorded over 6 hours. The time point of maximum cell adhesion was used for comparison relative to control.
A CHO-K1 hu α11 cell line was used to assess the ability of mAbs to block α11β1-mediated binding to type I collagen. […] In the “Untreated” condition, cells were plated on type I collagen but no antibody was added and in the “Uncoated” condition, cells were seeded onto BSA-coated wells containing no type I collagen. Statistics were performed using one-way ANOVA followed by Dunnett's multiple comparisons test. […] Therefore, it is possible that these mAbs bind on an α11β1 domain that keeps the integrin in a low or intermediate affinity state. […] Nine human mAbs were also tested for their ability to inhibit the binding of human CHO-α11 cells to type I collagen.

Row | MF FACS [1] | Human α11β1 ELISA [2] | binding to I domain of α11β1 (high, medium, low) [4] | I Domain binding [4] | HPF FACS [5] | Molecule | inhibition of αSMA expression / FMT [3] | Inhibition of FMT [3] | I-domain binder [4] | inhibition of cell adhesion to type I collagen [6] | Inhibition of CHO-K1 adhesion to collagen [6]
1 | Yes | Yes | high | Yes | No | 79E3E3: rat anti-α11β1 mAb; VH SEQ ID NO: 145, VL SEQ ID NO: 146 (antibody, V domains shown) VH: MDWLWNLLFLMVVAQSAQAQIQLVQSGPEVKKPGESVKISCKASGYTFTDYAMNWVKQAPGNGLKWMGWINTQTGKPTYADDFKQRFVFSLETSARTTYLQINNLNIEDTATYFCTRLGTGNTKGFAYWGQGTLVTVSS VL: MESQTHVLISLLLCVSGTCGDILINQSPASLTVSAGERVTMSCKSSQSLLYSENNQDYLAWYQQKPGQFPKLLIYGASNRHTGVPDRFTGSGSGTDFTLTISSVQAEDLADYYCEQTYRYPFTFGSGTKLEIK | failed to decrease αSMA expression | No | found to be an I-domain binder | strongly inhibited cell adhesion | Yes
2 | – | Yes | – | No | – | 40G10H11: rat anti-α11β1 mAb; VH SEQ ID NO: 157, VL SEQ ID NO: 158 (antibody, V domains shown) VH: MDIRLSLGFLVLFIKGDQCAVQLVESGGGLVQPGRSLKLSCAASRITFTDYYMAWVRQAPTKGLEWVATISSDGGDTFYRDSVKGRFTISRDNAKSTLYLQMVSLRSEDTATYYCSTDRGAQFGYWGQGTLVTVSS VL: MAPVQLLGLLLIWLPAMRCDIQMTQSPSFLSASVGDRVSINCKASQNVHENLNWYQQKLGEAPKRLIYNTNNLQTGIPSRFSGSGSGADYTLTISSLQPEDFATYFCLQHNAFPYTFGPGTKLELK | significantly inhibited αSMA expression | Yes | not found to be an I-domain binder; also recorded: neither of the antibodies was found to be an I-domain binder | strongly inhibited cell adhesion; also recorded: inhibited cell adhesion | Yes
3 | Yes | Yes | – | No | No | 8-P20: mouse anti-α11β1 mAb; VH SEQ ID NO: 105, VL SEQ ID NO: 106 (antibody, V domains shown) VH: KVMLVESGGALVKPGGSLKLSCVASGFTFSNYAMSWVRQTPEKRLEWVATISSGGYYTYYPDSVKGRFTISRDNARNTLFLQMSSLRSEDTAMFYCAREDDYGRYSYTMDYWGQGTSVTVSS VL: DVVMTQTPLSLPVSLGDQVSISCRCSQSLVHSNGNTYLHWYLQKPGQSPQLLIYKISNRFSGVPDRFSGSGSGTDFTLKISRVEAEDLGVYFCSQSTHVPYTFGGGTELEIK | – | No | – | did not block cell adhesion | No
4 | – | Yes | – | No | – | 18E10F10: rat anti-α11β1 mAb; VH SEQ ID NO: 155, VL SEQ ID NO: 156 (antibody, V domains shown) VH: MDIRLSLVFLVLFMKGVQCEVQLVESGGGLVQPGRSLKLSCAASRFTFSDYNMAWVRQAPKKGLEWVATIYHDDSGSYYRDSVKGRFTISRNNAKSTLYLQMDSLRSEDMATYYCARHNNGFDYWGQGVMVTVAS VL: MKWPVRLLVLFFWIPASGGDVVMTQTPVSLPVRLGGQASISCRSSQSLVHSNGNTYLHWYLQKPGQSPQLLINRVSNRFSGVPDRFSGSGSGTDFTLKINRVEPEDLGDYYCLQSTHFPLTFGSGTKLETK | – | Yes | – | – | Yes
5 | – | Yes | medium | No | – | 8H8E9: rat anti-α11β1 mAb; VH SEQ ID NO: 149, VL SEQ ID NO: 150 (antibody, V domains shown) VH: MAVLVLLLCLVTFPSCALSQVQLKESGPGLVQPSQTLSLTCTVSGFSLTSNSVSWVRQAPGKGLEWMGAIWSGGSTDYNSALKSRLSISRDTSKSQVFLKMNSLQTEDTAIYFCTRSHWEPFDYWGQGVMVTVSS VL: MESQTQALISLLLWVYGTCGDIVMTQSPFSLAVSEGEMVTINCKSSQGLLSSGNQKNYLAWYQQRPGQSPKLLIYYASTRQSGVPDRFIGGGSGTDFTLTISDVQAEDLADYYCLQHYSYPPTFGSGTKLEIK | – | Yes | – | – | Yes
6 | – | Yes | low | No | – | 6E5C11: rat anti-α11β1 mAb; VH SEQ ID NO: 151, VL SEQ ID NO: 152 (antibody, V domains shown) VH: MAVLVLLLCLVTFPSCALSQVQLRESGPGLVQPSQTLSLTCTVSGFSLTSNSVTWVRQPPGKGLEWMGAIWSDGSTDYNSTLKSRLSISRDTSKSQVFLKMSSLQTEDTAIYFCTRSHWEPFDYWGQGVMVTVSS VL: MESQTQALISLLLWVYGTCGDIVMTQSPLSLAVSEGETVTMNCKSSQSLFSSGNQKNYLAWYQQKPGQSPKLLIYYASTRQSGVPDRFIGSGSGTDFTLTISDVQTEDLADYYCLQHYNYPPTFGSGTKLEIK | – | Yes | – | – | No
